Data reported in publication PMC4446439.

What follows are substances tested on LSD1Δ1 (KDM1);CoRESTΔ1 (human;human) (assay: HI-FI fluorescence quenching). Settings: 20 mM Tris-HCl pH 7.6, 50 mM NaCl, 5 mM DTT, 5% glycerol, 0.01% NP40, 0.01% CHAPS, 100 ug/ml BSA, 2 mM EDTA, room temperature, 15 min.

Substance	Kd [µM]
147 bp nucleosome 1N1, H3 A21C	0.081
147 bp nucleosome 1N1, H3 K27C	1.64
151 bp nucleosome 3N3, H3 K27C	0.716
151L nucleosome 5N1, H3 K27C	0.718
155 bp nucleosome 5N5, H3 K27C	0.419
157 bp nucleosome 6N6, H3 A21C	0.0176
157 bp nucleosome 6N6, H3 K27C	0.47
159 bp nucleosome 7N7, H3 K27C	0.236
161 bp nucleosome 8N8, H3 K27C	0.232
161L nucleosome 15N1, H3 K27C	0.406
163 bp nucleosome 9N9, H3 K27C	0.237
165 bp nucleosome 10N10, H3 K27C	0.205
169 bp nucleosome 12N12, H3 K27C	0.282
177 bp nucleosome 16N16, H3 K27C	0.214
177L nucleosome 31N1, H3 K27C	0.769
181 bp nucleosome 18N18, H3 A21C	0.0038
181 bp nucleosome 18N18, H3 K27C	0.1
185 bp nucleosome 20N20, H3 K27C	0.135
207 bp nucleosome 31N31, H3 A21C	0.003
207 bp nucleosome 31N31, H3 K27C	0.263
